Results taken from paper PMC4854210, “IL-27 Promotes Proliferation of Human Leukemic Cell Lines Through the MAPK/ERK Signaling Pathway and Suppresses Sensitivity to Chemotherapeutic Drugs” (Journal of Interferon & Cytokine Research, 2016).

Key:
[1] = molecular target: T1, Recombinant human IL27Rα-Fc chimera (human, UniProt Q6UWB1 33-516); experiment: SPR; IL-27Rα-Fc or gp130-Fc captured on mouse anti-human IgG-Fc antibodies amine-coupled to a CM5 chip; IL-27 injected at increasing concentrations (multicycle), 30 μL/min; BIAcore T100, 25°C, HBS-EP+; double referenced; global fit, 1:1 Langmuir model; KD = kd/ka; conditions: both partners purified
T1 construct: IL-27 receptor subunit alpha (IL-27Rα, WSX-1, TCCR), human; Captured on the chip by anti-human IgG-Fc antibodies; also called IL-27Rα-Fc fusion protein; IL-27R-Fc fusion protein; source: bought: R & D Systems
T1 sequence (looked up): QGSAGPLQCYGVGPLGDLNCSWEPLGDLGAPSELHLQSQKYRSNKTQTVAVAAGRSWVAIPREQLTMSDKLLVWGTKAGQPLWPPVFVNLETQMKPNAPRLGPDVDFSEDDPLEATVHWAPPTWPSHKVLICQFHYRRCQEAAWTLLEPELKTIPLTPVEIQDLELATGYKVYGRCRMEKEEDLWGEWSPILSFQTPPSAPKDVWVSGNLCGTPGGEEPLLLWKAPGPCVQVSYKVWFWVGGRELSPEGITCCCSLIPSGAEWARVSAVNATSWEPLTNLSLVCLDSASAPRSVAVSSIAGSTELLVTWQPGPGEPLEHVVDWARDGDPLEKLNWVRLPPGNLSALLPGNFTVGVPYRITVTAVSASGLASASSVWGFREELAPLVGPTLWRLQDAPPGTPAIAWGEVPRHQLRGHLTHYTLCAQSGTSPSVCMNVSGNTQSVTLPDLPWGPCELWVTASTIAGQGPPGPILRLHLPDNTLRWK

[2] = molecular target: T2, Recombinant human gp130-Fc chimera (human, UniProt P40189-1 23-619); experiment: as above; conditions: both partners purified
T2 construct: gp130 (interleukin-6 receptor subunit beta), human; Captured on the chip by anti-human IgG-Fc antibodies; also called gp130-Fc fusion protein; source: bought: R & D Systems
T2 sequence (looked up): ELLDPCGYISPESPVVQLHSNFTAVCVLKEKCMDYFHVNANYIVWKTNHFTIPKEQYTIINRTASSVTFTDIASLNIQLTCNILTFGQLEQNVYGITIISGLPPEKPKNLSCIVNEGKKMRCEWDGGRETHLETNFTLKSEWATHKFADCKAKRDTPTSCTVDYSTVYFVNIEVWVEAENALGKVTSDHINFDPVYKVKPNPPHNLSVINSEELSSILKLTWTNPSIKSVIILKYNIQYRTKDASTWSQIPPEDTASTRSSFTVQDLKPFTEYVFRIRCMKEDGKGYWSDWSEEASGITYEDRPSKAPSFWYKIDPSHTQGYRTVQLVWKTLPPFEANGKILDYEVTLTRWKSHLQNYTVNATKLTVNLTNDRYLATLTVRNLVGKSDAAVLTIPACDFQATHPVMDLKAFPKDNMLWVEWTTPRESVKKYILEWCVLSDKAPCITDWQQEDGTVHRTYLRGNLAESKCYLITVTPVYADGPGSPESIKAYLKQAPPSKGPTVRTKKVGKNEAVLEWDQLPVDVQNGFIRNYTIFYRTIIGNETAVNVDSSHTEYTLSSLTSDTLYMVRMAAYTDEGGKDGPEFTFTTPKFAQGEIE

B1: Recombinant human IL-27 (ligand)
chain 1: FPRPPGRPQLSLQELRREFTVSLHLARKLLSEVRGQAHRFAESHLPGVNLYLLPLGEQLPDVSLTFQAWRRLSDPERLCFISTTLQPFHALLGGLGTQGRWTNMERMQLWAMRLDLRDLQRHLRFQVLAAGFNLPEEEEEEEEEEEEERKGLLPGALGSALQGPAQVSWPQLLSTYRLLHSLELVLSRAVRELLLLSKAGHSVWPLGFPTLSPQP
chain 2: RKGPPAALTLPRVQCRASRYPIAVDCSWTLPPAPNSTSPVSFIATYRLGMAARGHSWPCLQQTPTSTSCTITDVQLFSMAPYVLNVTAVHPWGSSSSFVPFITEHIIKPDPPEGVRLSPLAERQLQVQWEPPGSWPFPEIFSLKYWIRYKRQGAARFHRVGPIEATSFILRAVRPRARYYVQVAAQDLTDYGELSDWSLPATATMSLGK
notes: IL-27 subunit p28 (cytokine subunit of the heterodimeric IL-27), human; Epstein-Barr virus-induced gene 3 (EBI3), the soluble cytokine receptor subunit of IL-27, human; also called interleukin-27; source: bought: R & D Systems
- Kd [1]: 0.0457 nM
- koff [1]: 0.00414 s⁻¹
- kon [1]: 9.08e+07 M⁻¹ s⁻¹
- Kd [2]: 2.74 nM
- koff [2]: 456 s⁻¹
